Reference: the RNAGym collection of RNA variant scans (doi:10.7554/elife.80360)

B1: HDV Ribozyme (parent)
chain: GGCCGGCAUGGUCCCAGCCUCCUCGCUGGCGCCGGCUGGGCAACAUUCCGAGGGGACCGUCCCCUCGGUAAUGGCGAAUGGGACCCA

Variants of: B1
Test: self-cleavage, relative activity (ratio to wild type); higher = more cleavage; co-transcriptional

| Variant | self-cleavage |
| --- | --- |
| U12C U20C | 0 |
| U27C C41G | 0.217 |
| C61G A83C | 0.364 |
| C44G U72G | 0.446 |
| A42G U65A | 0.703 |
| G2A G28A | 0.0107 |
| C30A C75U | 0.101 |
| C44G C84U | 0.53 |
| G31C A51U | 0.212 |
| A42U G59C | 0.422 |
| G29C A70C | 0.0536 |
| G35C G76C | 0.305 |
| G1C C57G | 0.222 |
| C21U G59C | 0.292 |
| A16U G68C | 1.03 |
| U37C A70G | 1.23 |
| C48U U69G | 0.869 |
| C24A C49A | 0.65 |
| A42C C61U | 0.199 |
| G31U G59U | 0.617 |
| U20G G39U | 0.0369 |
| U12A U23C | 0.237 |
| C15A C32A | 0.151 |
| A16C U72G | 0.237 |

| Variant | self-cleavage |
| --- | --- |
| C24A C30G | 0.089 |
| G11C G52U | 0.228 |
| C26U C44U | 1.01 |
| C61A U79G | 1.14 |
| C48U G59U | 1.06 |
| C86U A87C | 0.926 |
| A42G C58G | 0.554 |
| G29U C48G | 0.106 |
| U65A A83C | 0.504 |
| C19A G40C | 0.0587 |
| G31C G59A | 0.483 |
| C3G C32U | 0.198 |
| G2U C24G | 0.0225 |
| C13U A42G | 0.0755 |
| A8C | 0.859 |
| G17U | 0.548 |
| C7U G39A | 0.3 |
| G11A C21A | 0.11 |
| G25A G34U | 0.0702 |
| G29C U46C | 0.0755 |
| U20G G81A | 0.108 |
| G54A A78U | 0.245 |
| C58U A70U | 1.29 |
| C36G A56G | 0.0594 |

| Variant | self-cleavage |
| --- | --- |
| G10A A45G | 0.598 |
| G40U U69C | 0.91 |
| U69C A70G | 0.889 |
| A42U C61G | 0.77 |
| A42C U60A | 0.189 |
| C13U C61G | 0.684 |
| C18A C30U | 0 |
| G29C U60G | 0.199 |
| A51G G80C | 0.141 |
| G1U A43U | 0.225 |
| C75G C86A | 0.147 |
| C3U G52A | 0.896 |
| U20A G54U | 0.0923 |
| C4U G34C | 0.151 |
| C21U A43U | 0.13 |
| C30G | 0.0914 |
| C64A G67C | 0.277 |
| U20G G40A | 0.374 |
| G1C C14A | 0.0811 |
| C15A G17C | 0.0978 |
| G1U C62G | 0.391 |
| G10C C84U | 0.604 |
| U23G A87G | 0.645 |
| C33G A56U | 0.228 |

| Variant | self-cleavage |
| --- | --- |
| U47G G67A | 0.831 |
| G17A U65A | 0.752 |
| U12C G29U | 0.0346 |
| U47C C64U | 0.692 |
| G25C C41U | 0.0707 |
| U69G G76A | 0.855 |
| C14G C48G | 0.332 |
| U9A A71G | 0.506 |
| G81U G82U | 0.211 |
| A16G C36G | 0 |
| C15G C32G | 0.145 |
| U23C G50C | 0.864 |
| U20C C64G | 0.128 |
| G25A U47C | 0.107 |
| G39C A56C | 0.18 |
| C57A C63U | 1.12 |
| G5U G76U | 0.529 |
| C30A G34A | 0.0801 |
| G25C G74C | 0 |
| U37A C41A | 0.237 |
| U20A U37G | 0.277 |
| G68U A87G | 0.908 |
| U65C G67A | 0.706 |
| A42C C58A | 0.364 |

| Variant | self-cleavage |
| --- | --- |
| G5C A70U | 0 |
| G73A C86U | 0.831 |
| U47G C58A | 1.48 |
| U46G C86U | 0.277 |
| C57A A77G | 1.17 |
| C3G G40C | 0.339 |
| C4U G35U | 0.162 |
| U37A C48U | 0.237 |
| C33U A77U | 0.439 |
| U37G C75G | 0 |
| U47A C66G | 0.982 |
| C7G U9A | 0.237 |
| G5U C26G | 0.615 |
| G52C A71G | 0.884 |
| C30A G76C | 0.464 |
| C49A C62G | 0.128 |
| G29C G53C | 0.0462 |
| G34A C63U | 0.0656 |
| C62G A71C | 0.443 |
| G11A C58A | 0.554 |
| C13U C14U | 0.308 |
| U20C G53U | 0.101 |
| C30G G39A | 0.0608 |
| C49U G81C | 0.317 |

| Variant | self-cleavage |
| --- | --- |
| C64U C66G | 0.748 |
| G10A C86G | 0.639 |
| U23A U27A | 0.675 |
| U20A A77C | 0.151 |
| G10C C14A | 0.237 |
| C3U C36U | 0.356 |
| G50C G74C | 0.196 |
| G55C C61U | 1 |
| G2A U12C | 0.0627 |
| C24G U27G | 0.0536 |
| A16G A70U | 0.499 |
| C7A C44A | 0.0978 |
| A70C G73U | 0.302 |
| G40A C84U | 0.377 |
| C30U A43G | 0.0755 |
| C26U G59U | 0.881 |
| G53C U79A | 0.538 |
| C58U C75A | 0.095 |
| G52C A70C | 0.85 |
| U60C G68A | 0.81 |
| G50U G73U | 0.402 |
| U9C U69G | 1.22 |
| G55U C85G | 0.927 |
| G25C C75U | 0 |

| Variant | self-cleavage |
| --- | --- |
| G1U C21A | 0.397 |
| C24A C86A | 0.607 |
| G59U G74A | 0.46 |
| G28U U79G | 0.0978 |
| G28U U69C | 0.0791 |
| C32A A51G | 0.162 |
| U9A G29A | 0.0678 |
| G11C U60C | 0.511 |
| G38C C84A | 0.18 |
| G29A A71U | 0.0615 |
| C18U A71G | 0.504 |
| U69C C86A | 0.906 |
| G59C G74A | 0.635 |
| U12C U27C | 0.222 |
| A43C C64A | 0.38 |
| C24U C62A | 0.471 |
| G54U G82U | 0.432 |
| G11A G53U | 0.588 |
| U20A C32A | 0.0489 |
| G50C G73C | 0.601 |
| C48U A70G | 0.997 |
| C30G G34U | 0.0449 |
| G17U C84U | 0.487 |
